doi:10.1101/2024.10.23.619882

What was measured:
Assay in all cases: pull-down
[1] = molecular target: EGFP-tagged NHSL1-F1 with all 11 EndoA2 binding sites and both FP4 motifs mutated (human)
[2] = molecular target: EGFP-tagged NHSL1-F1 with both FP4 motifs mutated (human)
[3] = molecular target: EGFP-tagged NHSL1-F1 with the two Abi binding sites mutated (human)
[4] = molecular target: EGFP-tagged NHSL1-F1 with the 9 EndoA2 sites that do not bind Abi mutated (human)
[5] = molecular target: EGFP-tagged NHSL1-F1 with all 11 EndoA2 binding sites mutated (human)

fold reduction in binding against wild-type NHSL1 [1]: 5 fold | fold reduction in binding against wild-type NHSL1 [2]: 2 fold | fold reduction in binding against wild-type NHSL1 [3]: 5 fold | fold reduction in binding against wild-type NHSL1 [4]: 5 fold | fold reduction in binding against wild-type NHSL1 [5]: 5 fold
Substance: Myc-tagged wild-type EndoA2 (endophilin A2) (from UniProt O35964 1-368) (natural protein)
